Measured values published in paper PMC6294567, “The C-terminal D/E-rich domain of MBD3 is a putative Z-DNA mimic that competes for Zα DNA-binding activity” (Nucleic Acids Research, 2018).
“And” between values parts separate entries of the source, which are not always exact repeats. Identical values can stand only once.

Tests used:
[1] = system: replication protein A (RPA); details: cited from earlier work
Excerpt: This is the first report to identify a particular protein sequence with D/E repeats capable of competition with Z-DNA for binding to Zα, while the potential of acidic residues for DNA mimicry, referring to B-DNA or ssDNA, have been observed previously.

Zα [2] = target: T1, Zα (Homo sapiens, UniProt P55265); experiment: SEC-MALS of Zα and Zα-D/E-rich peptide complexes; type: binding; details: Zα 2.7 mg/ml, expected ~8.8
T1 construct: Zα of human ADAR1; residues 133–209; His6 (pMCSG7, followed by a TEV site) (N, cleaved yes); made in house; host or cells: E. coli BL21(DE3)
T1 sequence (P55265 133-209): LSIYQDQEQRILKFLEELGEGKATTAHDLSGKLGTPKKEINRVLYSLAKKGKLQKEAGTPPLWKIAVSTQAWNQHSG
Procedure: SEC−MALS measurements were conducted using a miniDAWN TREOS detector and an Optilab T-rEX differential refractive index detector (Wyatt Technology Corporation) coupled to an Agilent 1260 Infinity HPLC system. The SEC experiments were performed on an ENrich SEC 70 10 × 300 column (Bio-Rad) equilibrated in a buffer containing 20 mM HEPES–NaOH pH 7.5, 50 mM NaCl, 1 mM TCEP and 0.02% NaN3. The protein Zα alone (2.7 mg/ml) or the mixture of Zα and the D/E-rich peptide at various molar ratios and incubation periods as indicated was loaded onto the column at a flow rate of 0.5 ml/min. Bovine serum albumin (A1900; Sigma) was used for system calibration and molecular weights were calculated using ASTRA 6 software (Wyatt Technology Corporation) with a dn/dc value of 0.185 ml/g.
Figure 3. Analysis of complex formation of Zα and the D/E-rich domain. […] The left y axis represents the normalized UV absorbance at 280 nm, while the right y axis represents the molecular weight (Da). The horizontal traces show the calculated molecular weight. […] TEXT PRINTED IN THE PICTURE: (C) Zα: Measured MW (kDa): 9.8 ± 0.1; Expected MW (kDa): ~8.8 | (C) 1Zα: 1DE: Measured MW (kDa): 12.7 ± 0.1; Expected MW (kDa): ~11.6 | (C) 2Zα: 1DE: Measured MW (kDa): 20.8 ± 0.3; Expected MW (kDa): ~20.5

d(CG)6 duplex = experiment: Circular dichroism of d(CG)6 DNA conformation
Procedure: CD spectra were measured at 24°C on a J-815 Spectrometer (JASCO) using a 1 mm path length quartz cell. Prepare 7.5 μM DNA duplex in a buffer consisting of 5 mM HEPES–NaOH pH 7.5, 25 mM NaCl and 1 mM DTT, and in the absence or presence of indicated concentration of proteins. Spectra were recorded between 235 and 305 nm wavelength with a data pitch of 1 nm, bandwidth of 1 nm and with two accumulations at a scanning speed of 10 nm/min.
Figure 6. Zα can compete with the MBD domain for binding to d(CG)6, but not vice versa. (A) CD spectra of the d(CG)6 duplex in the presence of Zα. CD spectra of (B) the d(CG)6 and (C) the d(C^mG)6 duplex, respectively, in the presence of the MBD domain. (D) Monitoring of the change in CD spectra with the addition of increased amounts of Zα to the pre-incubated mixture of the MBD domain and d(CG)6. (E) Monitoring of the change in CD spectra with the addition of increased amount of the MBD domain to the pre-incubated mixture of Zα and d(CG)6. Spectra are expressed in absolute values of ellipticity in millidegrees (mdeg).

[3] = target: D/E-rich peptide of MBD3, unlabelled (full-length D/E-rich peptide) (human); experiment: SEC-MALS; Zα and D/E-rich peptide, equimolar (1, 16, 29 h) or 4:1 (1 h on ice); ENrich SEC 70 column; 20 mM HEPES-NaOH pH 7.5, 50 mM NaCl, 1 mM TCEP, 0.02% NaN3
Sso7d = target: T2, Sso7d (UniProt P39476 2-64); experiment: fluorescence polarization; FP: 20 mM HEPES-NaOH pH 7.5, 50 mM NaCl, 1 mM DTT, 30 ul; temperature not stated; CD buffer not in material; details: unlabelled version also purchased; blunt; self-complementary duplex, annealed from 85°C
T2 sequence: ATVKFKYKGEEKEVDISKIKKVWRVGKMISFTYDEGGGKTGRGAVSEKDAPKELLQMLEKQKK

[4] = target: T3, Zα (Z-DNA binding domain of ADAR1) (Homo sapiens, UniProt P55265 133-209); experiment: as above; details: protein: recombinant; tags: His10 (pET16b) or tag-free after TEV (pMCSG7); chain copies: 2; unlabelled version also purchased; blunt; self-complementary duplex, annealed from 85°C
T3 sequence: T1 sequence (P55265 133-209)

[5] = target: MBD3 MBD domain (MBD3MBD) (Homo sapiens, UniProt O95983 1-72); experiment: fluorescence polarization; high affinity similar to Zα; Kd value not in material; FP: 20 mM HEPES-NaOH pH 7.5, 50 mM NaCl, 1 mM DTT, 30 ul; temperature not stated; CD buffer not in material; details: protein: recombinant; tags: His6 removed by TEV; unlabelled version also purchased; blunt; self-complementary duplex, annealed from 85°C
Zα [6] = target: T1, Zα; experiment: SEC / SDS-PAGE complex formation with Zα; type: binding; details: Zα 100 μM : protein 25 μM (4:1), ice 1 h, 20 mM Tris–HCl pH 7.5, 50 mM NaCl, 1 mM TCEP
Procedure: Equimolar amounts (0.1 mM) of Zα and DE-rich peptide were incubated on ice for 1 h in a buffer containing 20 mM HEPES–NaOH pH 7.5, 50 mM NaCl, 1 mM DTT. The mixture was then loaded on a Superdex 30 16/600 column (GE Healthcare) equilibrated in the same buffer. The fractions from the peaks corresponding to Zα alone and the complex of Zα and DE-rich peptide were collected and used for chemical cross-linking.
To analyze complex formation of Zα and other proteins (MBD3, MBD or MBDDE), the mixtures were incubated on ice for 1 h in a buffer containing 20 mM Tris–HCl pH 7.5, 50 mM NaCl, 1 mM TCEP. The mixture was then loaded on a Superdex 75 or Superdex 200 increase 10/300 column (GE Healthcare).

His10-Zα = His10-Zα pull-down from HEK293 lysate with LC-MS/MS; type: binding, human; details: HEK293 cell lysate, Ni beads
Procedure: HEK293 cells were collected and the pellet was resuspended in the lysis buffer [(50 mM Tris–HCl pH7.5, 1% NP-40, 150 mM NaCl, 10 mM imidazole, 0.1 mM PMSF, 90 U/ml Benzonaes (Novagen) and EDTA-free protease inhibitor cocktail tablet (Roche)]. Lysate was clarified by centrifugation for 30 min at 16 000 × g at 4°C. The protein concentration was measured by using Bradford assay. 20 mg of HEK293 cell lysate was pre-cleaned by adding 1 ml of Ni sepharose (50% slurry) (GE Healthcare) and rotated at 4°C for 1 h. Add 1 mg of purified His10-Zα protein (buffer only as a negative control) to the pre-cleaned lysate and rotate at 4°C overnight. To capture His10-Zα protein, add 0.2 ml Ni sepharose (50% slurry) and incubate at 4°C for 1 h in a rotation wheel. […] Add trichloroacetic acid to precipitate and concentrate the eluates. The concentrated eluates were resuspended in NuPAGE LDS sample buffer (Invitrogen), run on NuPAGE 12% Bis–Tris gels (Invotrogen) and stained using Instant Blue (Expedeon). […]
To identify Zα-interacting proteins, the entire gel lanes were divided into several horizontal slices and subjected to in-gel trypsin digestion. The digested samples were analyzed by LC–MS/MS using LTQ-Orbitrap XL mass spectrometer (Thermo Fisher Scientific, Bremen, Germany). […]

[7] = Stability of E. coli-expressed protein; type: physicochemical; details: recombinant E. coli-expressed protein

EDWAGLDEDED [DSS1, protein whose D/E-rich segment (EDWAGLDEDED) acts as a DNA mimic]
attenuation of the affinity of RPA for ssDNA [1]: acts as a DNA mimic to attenuate the affinity of replication protein A (RPA) for ssDNA

B1: Zα, tag-free (Z-DNA binding domain of human ADAR1, residues 133-209), P55265 133-209 (domain or fragment)
chain: T1 sequence (P55265 133-209)
measured MW, Zα alone (Zα [2]): 9.8 ± 0.1 kDa | DNA conformation after binding (d(CG)6 duplex; CD 235-305 nm, 24°C, 7.5 μM DNA duplex, 5 mM HEPES–NaOH pH 7.5, 25 mM NaCl, 1 mM DTT): induced the Z-DNA formation | competition for binding to d(CG)6 (Zα added to pre-incubated MBD domain and d(CG)6) (d(CG)6 duplex; CD, increasing Zα): able to compete with the MBD domain for binding to d(CG)6 | stoichiometry N (Zα per D/E-rich peptide) [3]: 2 and 1

B2: d(CG)6 (dsDNA)
DNA 1: CGCGCGCGCGCG
DNA 2: CGCGCGCGCGCG
Kd (Sso7d): 262 ± 23 nM | Kd [4]: 40.3 ± 3.2 nM | binding result [5]: binds

B3: MBD3: full-length human MBD3; residue 1–291 (protein)
chain: MERKRWECPALPQGWEREEVPRRSGLSAGHRDVFYYSPSGKKFRSKPQLARYLGGSMDLSTFDFRTGKMLMSKMNKSRQRVRYDSSNQVKGKPDLNTALPVRQTASIFKQPVTKITNHPSNKVKSDPQKAVDQPRQLFWEKKLSGLNAFDIAEELVKTMDLPKGLQGVGPGCTDETLLSAIASALHTSTMPITGQLSAAVEKNPGVWLNTTQPLCKAFMVTDEDIRKQEELVQQVRKRLEEALMADMLAHVEELARDGEAPLDKACAEDDDEEDEEEEEEEPDPDPEMEHV
complex formation with Zα on SEC (Zα [6]): almost no detectable stable complex formation of Zα and MBD3 | pull-down by Zα (His10-Zα): could be pulled down by Zα | protein stability (in words) [7]: unstable with a large amount of aggregation and degradation
